Assay results taken from publication PMC10488932.

Experiments:
[1] = biological target: Sm-like protein from Sulfolobus acidocaldarius (SacSm) (Sulfolobus acidocaldarius); experiment: dynamic light scattering; particle size under native conditions, Zetasizer Nano ZSP, 25 °C, detection angle 173°
[2] = biological target: hybrid chaperone protein ADGroEL–SacSm (Escherichia coli | Sulfolobus acidocaldarius); experiment: as above

stoichiometry N [1] | stoichiometry N [2] | Substance
7 |  | Sm-like protein from Sulfolobus acidocaldarius (SacSm) (natural protein)
 | 7 | hybrid chaperone protein ADGroEL–SacSm
